Laboratory results published in article PMC6294518, “Structural insights into the duplex DNA processing of TREX2” (Nucleic Acids Research, 2018).

Key:
[1] = molecular target: T1, mTREX2 (Mus musculus, UniProt Q9R1A9 1-236); assay: X-ray crystallography (2.7 A); 2 Mg2+ per active site; Co-crystallization: mTREX2 5-8 mg/ml (stock 50 mM Tris-HCl, 400 mM NaCl, pH 7.0) with DNA at molar ratio 1:1.2; crystallization conditions in Table S2 not in the material; conditions: protein: recombinant; tags: pET28a vector, TALON-purified (His tag implied); chain copies: 2; hairpin; 3' overhang 2 nt
T1 sequence: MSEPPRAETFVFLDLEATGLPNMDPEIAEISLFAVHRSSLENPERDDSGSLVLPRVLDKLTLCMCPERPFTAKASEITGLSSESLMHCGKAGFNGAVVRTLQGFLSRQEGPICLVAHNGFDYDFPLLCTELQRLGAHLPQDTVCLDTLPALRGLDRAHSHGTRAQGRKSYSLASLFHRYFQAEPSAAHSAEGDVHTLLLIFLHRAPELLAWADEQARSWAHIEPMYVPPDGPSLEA

[2] = molecular target: the molecule itself; assay: crystal structure; apo-mTREX2 at 1.9 Å, one dimer in the asymmetric unit; a dimer is also seen in the Y-shaped DNA complex and the product (dCMP) complex
[3] = molecular target: T1, mTREX2; assay: X-ray crystallography (1.9 A); 2 Mg2+ per active site; Co-crystallization: mTREX2 5-8 mg/ml (stock 50 mM Tris-HCl, 400 mM NaCl, pH 7.0) with DNA at molar ratio 1:1.2; crystallization conditions in Table S2 not in the material; conditions: protein: recombinant; tags: pET28a vector, TALON-purified (His tag implied); chain copies: 2; hairpin; 1-nt unpaired 3' overhang, 4-nt unpaired 5' overhang; 2 DNAs per protein dimer

B1: duplex DNA with 2-nt 3'-overhang (stem loop) (structured_DNA)
DNA: GGCCCTCTTTAGGGCCTT
Does B1 bind [1]?
Result: binds

B2: mouse TREX2 (three prime repair exonuclease 2) (enzyme)
chain: T1 sequence
notes: TREX2, three prime repair exonuclease 2, mouse; NCBI Gene ID 24102; Cloned into pET28a and purified on a TALON column; Homodimer in the crystal and by gel filtration; also called mTREX2; apo-mTREX2; source: E. coli BL21-CodonPlus (DE3)-Rosetta, purified (HiTrap TALON, HiTrap Q, Superdex 75)
Which “stoichiometry N” value [2] does the source give for B2 here?
The value was 2.

B3: Y-shaped DNA (23-nt stem loop) (structured_DNA)
DNA: TGCCAGGCCCTCTTTAGGGCCTT
Does B3 bind [3]?
Result: binds
